Publication PMC11413682

Legend:
[1] = target: CUL2^ZYG11B (residues 490–728) (human) (UniProt Q9C0D3); experiment: ITC; MicroCal iTC200; peptides (0.5–1 mmol/L) in the syringe, CUL2^ZYG11B(490–728) (0.03 mmol/L) in the cell; 18 injections of 2 μL; repeated 3 times
[2] = target: CUL2^ZYG11B (residues 490–728) (human) (UniProt Q9C0D3); experiment: ITC; SNX11-degron peptide titrated into CUL2^ZYG11B that was pre-incubated with the ORF10 peptide (pre-formed ZYG11B/ORF10 N5 complex)

Chain of CUL2^ZYG11B (residues 490–728) (human) (Q9C0D3 490-728): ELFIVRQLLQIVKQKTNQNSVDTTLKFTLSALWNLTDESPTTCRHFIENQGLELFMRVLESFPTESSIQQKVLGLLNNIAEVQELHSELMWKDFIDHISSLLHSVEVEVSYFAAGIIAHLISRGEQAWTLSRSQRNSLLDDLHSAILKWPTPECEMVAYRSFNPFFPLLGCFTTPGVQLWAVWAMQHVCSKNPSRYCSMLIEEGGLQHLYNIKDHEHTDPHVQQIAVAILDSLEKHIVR

## SARS-CoV-2 ORF10 N3 peptide
[1]
  Kd: 14.5 µM

## SARS-CoV-2 ORF10 N4 peptide
[1]
  Kd: 5.18 µM

## SNX11-degron peptide
[2]
  fold lower affinity for CUL2^ZYG11B pre-bound to the ORF10 peptide than for CUL2^ZYG11B alone: 13 fold
